Results published in patent US20220267441A1 (VOR BIOPHARMA, published 2022).
Where two headings read alike, the source gives them in different places.

Tests used:
[1] = biological target: T1, cynomolgus CD45 on live cells (primary cynomolgus PBMCs) (cynomolgus monkey); assay: flow cytometry on PBMCs; cyno EC50 against human EC50
T1 construct: Endogenous CD45 on PBMCs; also called cyno CD45; Cyno PBMC
T1 chain: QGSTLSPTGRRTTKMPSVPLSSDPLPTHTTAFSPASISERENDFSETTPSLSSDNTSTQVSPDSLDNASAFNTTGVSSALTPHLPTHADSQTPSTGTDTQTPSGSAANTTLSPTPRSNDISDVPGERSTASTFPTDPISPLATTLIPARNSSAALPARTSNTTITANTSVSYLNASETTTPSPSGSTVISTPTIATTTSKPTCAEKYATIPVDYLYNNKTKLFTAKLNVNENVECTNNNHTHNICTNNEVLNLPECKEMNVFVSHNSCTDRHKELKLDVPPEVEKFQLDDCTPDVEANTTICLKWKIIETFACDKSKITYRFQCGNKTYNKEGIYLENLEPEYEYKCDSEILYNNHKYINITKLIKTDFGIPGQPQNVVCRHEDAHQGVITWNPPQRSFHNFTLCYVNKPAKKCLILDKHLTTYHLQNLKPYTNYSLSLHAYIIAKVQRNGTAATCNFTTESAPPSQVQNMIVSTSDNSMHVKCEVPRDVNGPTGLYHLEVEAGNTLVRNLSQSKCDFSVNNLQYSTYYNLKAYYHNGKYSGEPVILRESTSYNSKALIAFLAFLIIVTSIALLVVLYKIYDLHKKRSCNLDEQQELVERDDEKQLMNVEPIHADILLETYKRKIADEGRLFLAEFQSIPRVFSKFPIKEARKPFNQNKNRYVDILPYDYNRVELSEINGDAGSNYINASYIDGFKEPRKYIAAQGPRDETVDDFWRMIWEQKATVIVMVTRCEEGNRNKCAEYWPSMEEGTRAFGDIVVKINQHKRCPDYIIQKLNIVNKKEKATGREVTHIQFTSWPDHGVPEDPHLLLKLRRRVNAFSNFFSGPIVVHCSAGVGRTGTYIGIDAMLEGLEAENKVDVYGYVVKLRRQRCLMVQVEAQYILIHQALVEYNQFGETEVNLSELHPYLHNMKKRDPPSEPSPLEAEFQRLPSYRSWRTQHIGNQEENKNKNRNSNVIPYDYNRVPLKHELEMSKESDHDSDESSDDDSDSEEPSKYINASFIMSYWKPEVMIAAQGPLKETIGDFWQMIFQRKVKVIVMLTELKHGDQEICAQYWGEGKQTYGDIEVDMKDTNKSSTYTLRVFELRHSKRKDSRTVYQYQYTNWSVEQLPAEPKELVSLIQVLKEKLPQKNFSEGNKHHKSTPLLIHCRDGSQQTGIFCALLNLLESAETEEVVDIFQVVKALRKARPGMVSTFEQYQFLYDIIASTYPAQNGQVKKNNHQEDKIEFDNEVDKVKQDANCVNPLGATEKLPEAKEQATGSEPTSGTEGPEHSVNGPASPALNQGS

[2] = biological target: T1, cynomolgus CD45 on live cells (primary …); assay: as above
[3] = biological target: T2, human CD45 on live cells (REH-1 cells, primary human PBMCs) (human, UniProt P08575 26-1306); assay: flow cytometry on human PBMCs, overnight 37 C, AF488 anti-human IgG
T2 construct: Endogenous CD45
T2 sequence: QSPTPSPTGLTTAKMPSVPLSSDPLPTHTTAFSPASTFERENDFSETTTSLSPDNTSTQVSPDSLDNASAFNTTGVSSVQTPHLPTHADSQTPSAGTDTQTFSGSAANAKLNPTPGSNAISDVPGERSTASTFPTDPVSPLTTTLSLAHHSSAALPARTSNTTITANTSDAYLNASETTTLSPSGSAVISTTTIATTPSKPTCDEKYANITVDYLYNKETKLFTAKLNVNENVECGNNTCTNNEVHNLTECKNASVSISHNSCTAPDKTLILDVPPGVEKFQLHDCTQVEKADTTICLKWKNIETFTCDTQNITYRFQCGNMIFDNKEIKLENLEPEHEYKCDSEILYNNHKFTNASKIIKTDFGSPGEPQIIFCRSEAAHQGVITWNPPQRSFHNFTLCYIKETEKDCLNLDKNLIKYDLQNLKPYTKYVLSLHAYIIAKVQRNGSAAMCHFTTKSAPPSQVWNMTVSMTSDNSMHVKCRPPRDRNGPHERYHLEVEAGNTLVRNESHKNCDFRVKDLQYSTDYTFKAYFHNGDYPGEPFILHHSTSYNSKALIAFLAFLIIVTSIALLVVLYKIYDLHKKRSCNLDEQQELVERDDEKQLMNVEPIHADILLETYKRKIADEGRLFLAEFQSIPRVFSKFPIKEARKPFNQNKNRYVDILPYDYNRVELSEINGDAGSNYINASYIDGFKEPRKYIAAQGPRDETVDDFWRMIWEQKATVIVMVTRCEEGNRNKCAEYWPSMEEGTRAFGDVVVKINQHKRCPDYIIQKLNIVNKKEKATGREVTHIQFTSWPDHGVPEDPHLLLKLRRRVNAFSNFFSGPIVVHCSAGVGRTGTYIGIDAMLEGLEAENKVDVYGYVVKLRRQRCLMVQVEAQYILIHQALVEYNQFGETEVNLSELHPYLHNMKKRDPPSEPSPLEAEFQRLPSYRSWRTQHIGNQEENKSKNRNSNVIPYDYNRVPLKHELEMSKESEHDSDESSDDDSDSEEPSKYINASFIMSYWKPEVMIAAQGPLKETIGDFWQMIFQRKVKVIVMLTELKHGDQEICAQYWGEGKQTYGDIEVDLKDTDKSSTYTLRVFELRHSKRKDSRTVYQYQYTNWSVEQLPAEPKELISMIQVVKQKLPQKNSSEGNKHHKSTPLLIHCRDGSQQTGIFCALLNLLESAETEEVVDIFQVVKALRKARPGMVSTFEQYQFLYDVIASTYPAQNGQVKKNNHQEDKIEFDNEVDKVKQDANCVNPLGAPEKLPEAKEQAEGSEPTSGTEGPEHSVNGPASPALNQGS

[4] = biological target: T1, cynomolgus CD45 on live cells (primary …); assay: flow cytometry on cynomolgus PBMCs, overnight 37 C, AF488 anti-human IgG
[5] = biological target: T2, human CD45 on live cells (REH-1 cells, …); assay: flow cytometry on human PBMCs, overnight 37 C, AF488 anti-human IgG; remark: listed apart in the source
[6] = biological target: T3, purified human CD45 ectodomain (human CD45RABC antigen) (human, UniProt P08575 26-577); assay: BLI (Octet Red96), antibody on anti-human Fc sensor, 100 nM human CD45 ectodomain, 1:1 fit
T3 construct: also called hCD45
T3 sequence: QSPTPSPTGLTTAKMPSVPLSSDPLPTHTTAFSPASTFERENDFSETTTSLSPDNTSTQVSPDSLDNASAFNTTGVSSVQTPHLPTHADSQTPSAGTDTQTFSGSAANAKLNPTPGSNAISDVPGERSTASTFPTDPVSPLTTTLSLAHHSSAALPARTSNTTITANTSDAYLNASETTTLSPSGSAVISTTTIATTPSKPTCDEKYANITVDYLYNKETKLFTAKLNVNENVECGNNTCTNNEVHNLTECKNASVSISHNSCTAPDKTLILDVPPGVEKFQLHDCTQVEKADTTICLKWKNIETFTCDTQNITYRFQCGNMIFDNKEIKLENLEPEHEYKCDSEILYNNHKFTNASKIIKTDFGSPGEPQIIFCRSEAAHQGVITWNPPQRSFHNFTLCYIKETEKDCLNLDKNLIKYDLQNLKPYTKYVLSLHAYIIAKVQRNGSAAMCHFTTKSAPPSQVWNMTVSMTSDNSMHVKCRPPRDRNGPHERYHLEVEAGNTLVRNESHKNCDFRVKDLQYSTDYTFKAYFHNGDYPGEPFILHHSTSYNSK

[7] = biological target: T1, cynomolgus CD45 on live cells (primary …); assay: flow cytometry on cynomolgus PBMCs, overnight 37 C, AF488 anti-human IgG
[8] = biological target: T3, purified human CD45 ectodomain (human …); assay: BLI (Octet Red96), IgG on anti-human Fc sensor, 50 nM CD45 ectodomain, 1:1 fit

B1: Antibody A (AbA) (antibody, V domains shown)
VH: EVQLLESGGGLVQPGGSLRLSCAASGFTFNNYWMTWVRQAPGKGLEWVSSISSSGGSIYYPDRVKGRFTISRDNSKNTLYLQMNSLRAEDTAVYYCARDERWAGAMDAWGQGTTVTVSS
VL: DIQMTQSPSSLSASVGDRVTITCKASQNINKNLDWYQQKPGKAPKLLIYETNNLQTGVPSRFSGSGSGTDFTLTISSLQPEDFATYYCYQHNSRFTFGQGTKLEIK
notes: also called humanized clone AbA
B1 was tested, and the “Fold Cyno vs Human (EC50)” value [1] was 2.2 fold, the “Fold Cyno v/s Human (EC50)” value [2] was 1.8 fold and the EC50 [3] was 0.78 nM. It also gave an EC50 [4] of 1.37 nM, an EC50 [5] of 0.58 nM and a Kd [6] of 3.6 nM. For the same binder, the koff [6] was 0.000181 s⁻¹, the kon [6] was 50300 M⁻¹ s⁻¹ and the EC50 [7] was 1.25 nM.

B2: Antibody 4 (Ab4) (antibody, V domains shown)
VH: EVQLVESGGGLVQPGGSLRLSCAASGFTFEAYSMNWVRQAPGKGLEWVSYISLSGATIHYADSVKGRFTISRDNAKNSLYLQMNSLRAEDTAVYYCARGGQYYYTSSDYGEVAFDIWGQGTMVTVSS
VL: DIVMTQSPLSLPVTPGEPASISCRSSQSLVSNGYNYLDWYLQKPGQSPQLLIYFGSSRASGVPDRFSGSGSGTDFTLKISRVEAEDVGVYYCMQRRRTPWSFGGGTKVEIK
B2 was tested, and the Kd [8] was 0.0139 nM, the koff [8] was 3.28e-06 s⁻¹ and the kon [8] was 236000 M⁻¹ s⁻¹.

B3: Antibody 2 (Ab2) (antibody, V domains shown)
VH: EVQLVESGGGLVQPGGSLRLSCAASGFTFEAYSMNWVRQAPGKGLEWVSYISLSGATIHYADSVKGRFTISRDNAKNSLYLQMNSLRAEDTAVYYCARGGQYYYDSSDYGEVAFDIWGQGTMVTVSS
VL: DIVMTQSPLSLPVTPGEPASISCRSSQSLVSNGYNYLDWYLQKPGQSPQLLIYFGSSRASGVPDRFSGSGSGTDFTLKISRVEAEDVGVYYCMQRRRTPWSFGGGTKVEIK
B3 gave a Kd [8] of 0.115 nM, a koff [8] of 2.8e-05 s⁻¹ and a kon [8] of 245000 M⁻¹ s⁻¹.

B4: Antibody 5 (Ab5) (antibody, V domains shown)
VH: EVQLVESGGGLVQPGGSLRLSCAASGFTFEAYSMNWVRQAPGKGLEWVSYISLSGATIHYADSVKGRFTISRDNAKNSLYLQMNSLRAEDTAVYYCARGGQYYYTSSDYGEVAFDIWGQGTMVTVSS
VL: DIVMTQSPLSLPVTPGEPASISCRSSQSLVSSGYNYLDWYLQKPGQSPQLLIYFGSSRASGVPDRFSGSGSGTDFTLKISRVEAEDVGVYYCMQRRRTPWSFGGGTKVEIK
notes: Human IgG: Ab4 with the Asn to Ser substitution in CDR-L1
B4 gave a Kd [8] of 0.144 nM, a koff [8] of 3.36e-05 s⁻¹ and a kon [8] of 233000 M⁻¹ s⁻¹.

B5: Antibody 6 (Ab6) (antibody, V domains shown)
VH: EVQLVESGGGLVQPGGSLRLSCAASGFTFEAYSMNWVRQAPGKGLEWVSYISLSGATIHYADSVKGRFTISRDNAKNSLYLQMNSLRAEDTAVYYCARGGQYYYTSSDYGEVAFDIWGQGTLVTVSS
VL: DIVLTQSPLSLPVTPGEPASISCRSSQSLVSSGYNYLDWYLQKPGQSPQLLIYFGSSRASGVPDRFSGSGSGTDFTLKISRVEAEDVGVYYCMQRRRTPWSFGGGTKVEIK
For B5, the Kd [8] was 0.0716 nM, the koff [8] was 1.73e-05 s⁻¹ and the kon [8] was 242000 M⁻¹ s⁻¹.

B6: Antibody 3 (Ab3) (antibody, V domains shown)
VH: QVQLVESGGGLVKPGGSLRLSCAASGFTFGGYSMNWVRQAPGKGLEWVSYISISGATITYADSVKGRFTISRDNAKNSLYLQMNSLRAEDTAVYYCARGGQYYYDSSDYGEVAFDIWGQGTMVTVSS
VL: DIVMTQSPLSLPVTPGEPASISCRSSQSLVSNGYNYLDWYLQKPGQSPQLLIYFGSSRASGVPDRFSGSGSGTDFTLKISRVEAEDVGVYYCMQRRRTPPFTFGGGTKVEIK
Binder B6 has a Kd [8] of 0.866 nM, a koff [8] of 0.000225 s⁻¹ and a kon [8] of 260000 M⁻¹ s⁻¹.

B7: Antibody 7 (Ab7) (antibody, V domains shown)
VH: QVQLVESGGGLVKPGGSLRLSCAASGFTFGGYSMNWVRQAPGKGLEWVSYISISGATITYADSVKGRFTISRDNAKNSLYLQMNSLRAEDTAVYYCARGGQYYYDSSDYGEVAFDIWGQGTMVTVSS
VL: DIVMTQSPLSLPVTPGEPASISCRSSQSLVSSGYNYLDWYLQKPGQSPQLLIYFGSSRASGVPDRFSGSGSGTDFTLKISRVEAEDVGVYYCMQRRRTPPFTFGGGTKVEIK
notes: Human IgG: Ab3 with the Asn to Ser substitution in CDR-L1
In the case of B7, the Kd [8] is reported as 2.33 nM, the koff [8] is reported as 0.000615 s⁻¹ and the kon [8] is reported as 264000 M⁻¹ s⁻¹.
